Data from the nanobody polyreactivity screen of Harvey et al. (2022).

Assay: yeast display, Sf9 membrane polyspecificity reagent, FACS + sequencing; frameworks hold sequencing errors
Procedure, shortened: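 After 36–48 hours of galactose induction, yeast (Saccharomyces cerevisiae BJ5465) displaying a synthetic nanobody library were stained at 4 °C for 1 hour with 10% biotinylated, detergent-solubilized Sf9 membrane reagent. Streptavidin microbeads enriched the stained cells before FACS sorting into low and high (top ~1%) gates on anti-HA and streptavidin fluorescence. Each clone's polyreactivity label reflects its gate of origin.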

Row | Sequence | polyreactivity (PSR sort gate)
1 | QVQLQESGGGLVQAGGSLRLSCAASGNIVDADIMGWYRQAPGKERELVASITDGGSTNYADSVKGRFTISRDNAKNTVYLQMNSLKPVDTAVYNCAAIAYPDIPTYFDYDSEYFYWGQGTQVTVSS | low polyreactivity
2 | QVQLQESGGGLVQAGGSLRLSCAASGPISRRSTMGWYRQAPGKERELVTAITRGTNTNYADSVKGRFTISRDNAKNTESLQMNSLKPEDTAVYYGAAYGVLKPSRGDAVFHRYWGQGTQVTVSS | low polyreactivity
3 | QVQLQESGGGLVQAGGSLRLSCAASGPISRRSTMGWYRQAPGKERELVTAITRGTNTNYADSVKGRFTISRDNAKNTEYLQMNSLKPEDTAVFYCAAYGVLKPSRGDAVFHRYWGQGTQVTVSS | low polyreactivity
4 | QVQLQESGGGLVQAGGSLRLSCAASGSIFDGFNMGWYRQAPGKERECVAAISYGASTYYADSVKGRFTGSRDNAKNSVYLQMNSLKPEDTAVYYCAVYDELYHVLVYWGRGTQVTVSS | low polyreactivity
5 | QVQLQESGGGLVQAGGSLRLSCAASGSIFHLHIMSWYRHAPGKERESVAAISYGTSTYYADSVKCRFTICRDNAKNTVYLQINIPKPDDTAVYYCAALFLVSKHHHYWGEGTQVTVSS | low polyreactivity
6 | QVQLQESGGGLVQAGGSLRLSCAASGSIFLFYTMGCYRPAPVKEREFVAGITLGTTTYNADSVKGRFTISRDNVKNTVYLQMNSLNPVDSAVYYCAVAVGHYTEFWYWGQGTQVTMSS | high polyreactivity
7 | QVQLQESGGGLVQAGGSLRLSCAASGSIFQYGYMGWYRQAPGKEREFVAGIGGGTSNYADSVKGRFTISRDNAKNTVYLQMNSLKPEDTAVYYCNTDAGDYYGENYWGQGTQVTVSS | low polyreactivity
8 | QVQLQESGGGLVQAGGSLRLSCAASGSIFTQATMGWYRQAPGKERELVAAINFGSSTYYADSVKGRFTISRDNAKSTVYLQMNSLKPEDTAVYYCAVRALWYDFHDYWGQGTQVTVSS | high polyreactivity
9 | QVQLQESGGGLVQAGGSLRLSCAASGSISHYIFMGWYRQAPGKEREFVAGIGYGGTTNYADSVKGRFTISRDNAKNTVYLQMNSLKPEDTAVYYCAAVSIYWGQGTQVTVSS | low polyreactivity
10 | QVQLQESGGGLVQAGGSLRLSCAASGSISHYIFRGWYRQAPGKEPEFVAGIGYGGTTNYADSVKGRFTISRDNAKNTVYLQMNSLKPEDTAMYYCAAREATEFYLYYWGQGTQVTVIS | low polyreactivity
11 | QVQLQESGGGLVQAGGSLRLSCAASGSISNSAAMAWYRQAPGKERELVVSIGHGASSNYADSVKGRFTISRDNAKNTVYLQMNSLKPEDTAVYYCAAYPGFLDGFFYWGQSTQVTVSS | high polyreactivity
12 | QVQLQESGGGLVQAGGSLRLSCAASGSITRYYDMGWYRQAPGKEREFVAGISGGAITYYADSLKGRFTISRDNAKNTVYLQMNSLKPEDTAVYYCAADTGVYQYHSYWGQGTQVTVSS | low polyreactivity
13 | QVQLQESGGGLVQAGGSLRLSCAASGSNSILQSMGWYRQAPGKERELVAGINWGATTYYADSVKGRLTTSRDYAKNSVYLQMNSLKPEDTAVYFCAVPTYYTYPLLYWGQGTQVTVSS | low polyreactivity
14 | QVQLQESGGGLVQAGGSLRLSCAASGSNSILQSMGWYRQAPRKERELVAGINWGATTYYADSVKGRLTTSRDYAINTVYLQMNSLKPEATAVYYCAVPTYYTYPLLYWGQGTQVTVSS | low polyreactivity
15 | QVQLQESGGGLVQAGGSLRLSCAASGTIFRFRYMGWHRQAPVKERELVAGINGGTTTYYADSVIGRFTISRDNAKNTVYLQMNSLKADDTAVYNCAAGASRLTYYDYWGQGTQVTVSS | low polyreactivity
16 | QVQLQESGGGLVQAGGSLRLSCAASGTISDRAGMGWYRQAPAKNAIVATIDRGTNTNYADSVKGRFTISRVNAKNTVYLQMNSLKPEDTAVYNCAADGRYYIYLDYWGQGTQVTVSS | low polyreactivity
17 | QVQLQESGGGLVQAGGSLRLSCAASGTISPLPAMGWYRQAPGKEREFVAGIDTGAITNYADSVKGRFTISRDNAKNTVYLQMNSLKPEDTAVYYCAVFPAAYDYDERYYTYWGQGTQVTVSS | low polyreactivity
18 | QVQLQESGGGLVQAGGSLRLSCAASGTISQEDCMGWYRQATGKQREFVAAIGLGSNTNYADSLKGRFTISRDNAKNTVYLLMNSLKPEDTAVYYCAVSVWQYSDHVYRGQGTQVTVSS | low polyreactivity
19 | QVQLQESGGGLVQAGGSLRLSCAASGTISQEDWMGWYRQAPGKEREFVAAIGLGSNTNYADSLKGRFTISRDNAKKTVYLQMNSLKPEDTAVYYCAVSVWQYSDHVYRGQGTQVTVSS | low polyreactivity
20 | QVQLQESGGGLVQAGGSLRLSCAASGTISYAPHMGWYRQAPGKERELVAGITIGGTTYYADSVKGRFTISRDNANNTVYLQMNSLSPGDTAVYYCAAHSEQYTPFYYWGQGTQVTVSS | low polyreactivity
21 | QVQLQESGGGLVQAGGSLRLSCAASGTISYPRTMGWYRQAPGKEREFVAGIGVGGTTYYADSVKGRFTISRDNAKYTVYLQMNILKPEDAAVYYCAVAAYYDKYYVYWGQGTQVTVSF | low polyreactivity
22 | QVQLQESGGGLVQAGGSLRLSCAASGTMSDRPGMGWYRQAPAKNAIVATIDRGTNTNYADSVKGRFTISRDNAKNTVSLQMNSLKPEDSAVYNCAAVGRYYFSLDYWGPGTQVTVSS | low polyreactivity

Row | Sequence | polyreactivity (PSR sort gate)
23 | QVQLQESGGGLVQAGGSLRLSCAASGYISHAVEMCWYRQAPGKEHELVASISNGGSTNYADSVKGRFTISRDNAKNTVYLQMNSLKSEDTAVYYCAGWTGQVDIHYYWGQGTQVTVSS | low polyreactivity
24 | QVQLQESGGGLVQAGGSLRLSCAASGYISQSSVMGWYRQAPGKEREFVASISYGATTYYADSVKGRFTISRDNAKNTVYLQTNSPKPEDTAVYYCAVLVKRGFSHRYWGQGTQVTVSS | high polyreactivity
25 | QVQLQESGGGLVQAGGSLRLSCAASGYISTFSAEMGWYRQAPGKERELVASIAPGCTTSYADSVKGRFTISRDNAKNTVYLQMNSLKPEDTAVYYCAVDYTLPASFGYWGQGTQVTVSS | high polyreactivity
26 | QVQLQESGGGLVQAGGSLRLSCAASGYISTFSSEMGWYRQAPGKERELVASIAPGCTTSYADSVKGRFTISRDNAKNTVYLQMNSLKPEDTAVYYCAVGNGLSRYVYGDYDYWGQGTQVTVSS | high polyreactivity
27 | QVQLQESGGGLVQAGGSLRLSCAASRNISGSSDLGWYHQAPGKEREFVASITSGGTTYYADSVKGRFTISRDNAKNTVYLQMNSLKPEDTAVYYCAVGDPADAEFGYWGQGTQVTVSS | low polyreactivity
28 | QVQLQESGGGLVQAGGSLRLSCAGTGNIIDADFMRWYRQAPGKERELAASSTEGGSTNYAESVKSRFTISRDNANNTVYLQMNSLKPEVTAVYYCAAIAYPYIPTYFDYDSDYFYWGQGTQVTVSR | high polyreactivity
29 | QVQLQESGGGLVQAGGSLRLSCAPSGSISRYYDMGWYRQAPGKEREYVAGISGGAITYYADSVKGRFTISRDNAKNTVYLQMNSLKPEDTAVYYCAADTCVYQYHSYWGQGTQVTVSS | low polyreactivity
30 | QVQLQESGGGLVQAGGSLRLSCTASGTIYSTSAMGWYRQAPGKDREFVADIASGASTNYADSVKGRFTISRDNAKNTVYLQMNSLKPEDTAVYYCAAKRIRRRYKYDYWGQGTQVTVSS | high polyreactivity
31 | QVQLQESGGGLVQAGGSLRLSGAASGSISSRDAMGWYRQAPGKEREFVATIASGTTTYYADSVKGSFTISRDNAENTVYLQTNSLKPEDTAVYYCAAPTIQIYPFYYWGQGTQVTVSS | high polyreactivity
32 | QVQLQESGGGLVQAGGSLRLSSAASGSISSRDAMGWYRQAPGKEREFVATIASGTTTYYADSVKGSFTISRDNAENTVYLQTNSLKPEDTAVYYCAAPTIQIYPFYYWGQGTQVTVSS | high polyreactivity
33 | QVQLQESGGGLVQAGGSLRLSSAASGTISVHATMGWYRQAPGKERELVAGITDGANTYYADSVKGRFTISRDNSKNTEYLQMNSLKPEDTAVYYCAAYYGTVVHFTYWGQGTQVTVSS | low polyreactivity
34 | QVQLQESGGGLVQAGGSLRLTCAASGTISDSGLMGWYRQAAGKERELVAGISSGGITNYADSVKGRFTISRDNAKNTVYLQMNSLIPEDTAVYWGQGTQVTVSS | low polyreactivity
35 | QVQLQESGGGLVQAGGSLRMSCAASGSIFYVYGMGWYRQAPGKERELVAGINAGTNTNYADSVRGRFTISRDNAKNTVHLQMKSLKPEDTAVYYCAADGNGYQADEYWGQGTQVTVSS | high polyreactivity
36 | QVQLQESGGGLVQAGGSLRMSCAASGSISHYIFMGWYRQAPGKEREFVAGIGYGGTTNYADSVKVRFTISRDNAKNTVYLQMNRLKPEDTAMYYCAAREATEFYLYYWGQGTQVTVSS | low polyreactivity
37 | QVQLQESGGGLVQAGGSLSLSCAESGTISFTRDMVWYRQAPGKEREFVASIDRGASTYYADSVKGRFTISRDNAKNTVYLQMNSLKPEDSAVYYKAVIAPFYSSFAYWGQGTQVTVSS | high polyreactivity
38 | QVQLQESGGGLVQAGGSQRLSCAASGSISILQSRGCYRQAPGKERELVAGINWGATTYYADSVKGRLTTSRDYAKNTVYLQMNSLKPEDTAVYYCAVPTYYTYPLLYWGQGTQVTVSS | low polyreactivity
39 | QVQLQESGGGLVQAGGSQRLSCAASGYIIYFQYMGWYRQAPRKEREFVAAISDGANTNYADSVKGRFTISRDNAKNTVYLQMNSLKPEDTAVYYCAVYADENYYYIYWGQGTQVTVSS | low polyreactivity
40 | QVQLQESGGGLVQAGGSQRLSSAASGYNFYFQYMGWYRQAPGKEREFVAAISDGANTNNADSVKGRFTISRDNAKNTEYLQMNSLKPEDSAVYYCAVYADDNYYYIYWGQGTQVTVSS | low polyreactivity
41 | QVQLQESGGGLVQAGGTITLGYDMGWYRQAPGKEREFVAGIDTGAITYYADSVKGRFTNSRDNAKNTVYLQMNCLKPEDTAVYYCAAIQTHTYAHSYWGQGNQVTVSS | high polyreactivity
42 | QVQLQESGGGLVQAGGTITLGYDMGWYRQAPGKEREFVAGIDTGAITYYADSVKGRFTNSRDNAKNTVYLQMNSLKPEDTAVYYCAAILTHTYAHSYWGQGTQVTVSS | high polyreactivity
43 | QVQLQESGGGLVQAGGTLRLSCAASGSFSADEDMGWYRQAQGKEREFVAGISVGGNTNYADSVKGRFTISRENAKNTVYLQINSLKPEDTAVYYCAVLQDVYDALDYWAQGTQVTVSS | high polyreactivity
44 | QVQLQESGGGLVQAGVSLRLSCAASGSIFADVQMGWYRQAPGKERELVASIIFRGTTTYYADSVKGRFTISRDNAKNTVYLQMSSLKPEDTAVYYCAVGRSEGGDFAYWGQGTHVTVSS | low polyreactivity
